In paper PMC4748275, “SpyRing interrogation: analyzing how enzyme resilience can be achieved with phytase and distinct cyclization chemistries” (Scientific Reports, 2016):

Test system: O=C(Cc1cccs1)N[C@@H]1C(=O)N2C(C(=O)O)=C(/C=C/c3ccc([N+](=O)[O-])cc3[N+](=O)[O-])CS[C@H]12
Assay: purified protein
Details: 50 mM NaH2PO4 pH 7.0, 0.1% BSA, 30 °C, 10-100 μM nitrocefin

Q: With “BLA (TEM-1 β-lactamase) (Escherichia coli)” as the substance, how does the Km read?
A: Its Km is 120 ± 3 µM.

Q: And the kcat?
A: The kcat was 1200 ± 30 s⁻¹.
